# Laboratory results: the supplement of paper PMC10126150
# ± gives the standard deviation of the averaged measurements.
# System: ATP
# Test: switch fluorescence ratio, 500 uM ATP over buffer (Cy3 cluster intensity, sum of 5 cycles each) (fold (ratio)); higher = stronger signal-on switching upon ATP binding; sequences stand for … in TCGTCGGCAGCGTCAGATGTGTATAAGAGACAGTTTTTTTTTTTTTTTTTTTTTTTTT…TC
# Conditions: aptamer strand: ATP DNA aptamer (quencher-CACCTGGGGGAGTATTGCGGAGGAAGG + anchor), 100 nM annealed; ATP concentration: 500 uM
# Method in brief: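 Exposure to 500 uM ATP lasted 15 min at 22 °C before imaging, and a selection-buffer image was taken beforehand, for Cy3-labelled switching-strand clusters on a modified Illumina MiSeq flow-cell annealed to 100 nM quencher-labelled ATP aptamer. Five buffer/ATP cycles were run with NaOH stripping and re-annealing between them. The fluorescence ratio per cluster is summed target-cycle over summed buffer-cycle Cy3 intensity, averaged per switch-domain sequence. Clusters outside 100-1000 RFU were excluded.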
row,Sequence,switch fluorescence ratio
1,GAACGGGGAA,0.996 ± 0.015
2,GAACGGGGGA,0.988 ± 0.035
3,GAACGTGGTA,0.9936 ± 0.0038
4,GAACTAACAG,1.03 ± 0.021
5,GAACTAACCA,1.09 ± 0.02
6,GAACTAATAT,1.01 ± 0.017
7,GAACTAGCGC,1 ± 0.019
8,GAACTAGGGG,1.05 ± 0.088
9,GAACTAGTAT,1.01 ± 0.013
10,GAACTATGTA,1.038 ± 0.01
11,GAACTCTTAG,1.02 ± 0.019
12,GAACTGGCGC,1.02 ± 0.096
13,GAACTGGGGA,0.984 ± 0.047
14,GAACTGTTTT,0.987 ± 0.018
15,GAACTTGGCG,1.01 ± 0.041
16,GAAGAACCGG,0.974 ± 0.022
17,GAAGAAGGGT,0.99 ± 0.017
18,GAAGAAGGTT,0.99516 ± 0.00083
19,GAAGAATTAT,1.011 ± 0.0007
20,GAAGACTGGG,1.02 ± 0.051
21,GAAGAGGGAG,0.997 ± 0.026
22,GAAGAGGGTT,0.972 ± 0.033
23,GAAGAGTTTG,0.9776 ± 0.0069
24,GAAGATTGAT,0.96 ± 0.022
25,GAAGCCCACG,1.09 ± 0.019

row,Sequence,switch fluorescence ratio
1,GAAGCCTTGG,1.009 ± 0.004
2,GAAGCGAGTG,0.9785 ± 0.0056
3,GAAGCGTCGT,0.983 ± 0.063
4,GAAGCGTTGG,1.02 ± 0.0032
5,GAAGGAAAGT,0.9689 ± 0.0057
6,GAAGGAATCG,0.995 ± 0.048
7,GAAGGAGCGG,0.982 ± 0.023
8,GAAGGATGCT,1.03 ± 0.098
9,GAAGGCCCGT,0.991 ± 0.037
10,GAAGGCCGGG,1.033 ± 0.0054
11,GAAGGCGGGG,0.9933 ± 0.0054
12,GAAGGGACGA,0.993 ± 0.04
13,GAAGGGGACT,1.04 ± 0.076
14,GAAGGGGGAA,1.02 ± 0.019
15,GAAGGGGGCA,0.9882 ± 0.001
16,GAAGGGGGGA,0.985 ± 0.034
17,GAAGGGGGGG,0.999 ± 0.042
18,GAAGGGGTAA,1.18 ± 0.3
19,GAAGGGGTCG,1.05 ± 0.046
20,GAAGGGGTTG,1.02 ± 0.065
21,GAAGGGTAGC,0.996 ± 0.037
22,GAAGGGTGAA,0.9966 ± 0.0077
23,GAAGGTACGG,1.04 ± 0.061
24,GAAGGTAGGG,0.99 ± 0.051
25,GAAGGTATCC,1.02 ± 0.037

row,Sequence,switch fluorescence ratio
1,GAAGGTGGGA,1.038 ± 0.0092
2,GAAGGTTGCG,1.03 ± 0.056
3,GAAGTAAAGT,1.06 ± 0.15
4,GAAGTAAGCT,0.983 ± 0.026
5,GAAGTACAGC,1.26 ± 0.031
6,GAAGTAGGGA,1 ± 0.064
7,GAAGTATTGT,0.9951 ± 0.0062
8,GAAGTATTTT,0.962 ± 0.027
9,GAAGTCATTT,0.9828 ± 0.0031
10,GAAGTCTGGA,1 ± 0.024
11,GAAGTGCGGA,0.9795 ± 0.0061
12,GAAGTTATTT,0.981 ± 0.021
13,GAAGTTCATG,1.03 ± 0.024
14,GAAGTTGGCA,0.9964 ± 0.0029
15,GAAGTTGTTT,1.018 ± 0.002
16,GAATAAAAGG,0.973 ± 0.019
17,GAATAAAGGT,0.979 ± 0.02
18,GAATAGCCCA,0.9711 ± 0.0012
19,GAATAGGGGG,1.013 ± 0.0094
20,GAATAGGGTA,0.98 ± 0.018
21,GAATAGTGGG,1.006 ± 0.005
22,GAATATATAG,0.965 ± 0.011
23,GAATATTGAG,0.99 ± 0.019
24,GAATCATAGA,1.004 ± 0.0094
25,GAATCCGCCC,2.85 ± 0.74

row,Sequence,switch fluorescence ratio
1,GAATCGTCG,0.983 ± 0.025
2,GAATGGAGAA,0.992 ± 0.078
3,GAATGGAGTA,1.04 ± 0.039
4,GAATGGATGC,1.01 ± 0.0064
5,GAATGGCCTT,0.9949 ± 0.0072
6,GAATGGGGTG,1.02 ± 0.041
7,GAATGGTTTC,0.9947 ± 0.0053
8,GAATGTGGGC,0.955 ± 0.028
9,GAATGTTGTT,0.9476 ± 0.0092
10,GAATTACGGG,1.02 ± 0.023
11,GAATTAGACG,0.977 ± 0.01
12,GAATTAGGTT,1.01 ± 0.077
13,GAATTATGCC,0.977 ± 0.021
14,GAATTGAGGG,0.97 ± 0.054
15,GAATTGGT,1.01 ± 0.012
16,GAATTGGTTG,1 ± 0.04
17,GAATTGTTGT,1 ± 0.02
18,GAATTTAAGT,1.009 ± 0.0048
19,GAATTTACCT,1.2 ± 0.039
20,GAATTTAGGT,0.996 ± 0.028
21,GAATTTATAT,0.998 ± 0.0032
22,GAATTTGAGA,0.997 ± 0.019
23,GAATTTGATG,1 ± 0.042
24,GACAAAGCGG,1.07 ± 0.041
25,GACAAAGGGC,1.08 ± 0.027
